Patent US20200323902
Changes are numbered by the printed parent chain.

What was measured:
Test in all cases: cell_activity
[1] = tested on: Sleeping Beauty transposase SB11 (synthetic); settings: primary human CD3+ T cells, mean; unit inferred from figure legend
[2] = tested on: T1, TcBuster D189A/V377T/E469K (Tribolium castaneum); settings: primary human CD3+ T cells, mean; nearly 2-fold over WT at day 14; unit inferred from figure legend
T1 sequence: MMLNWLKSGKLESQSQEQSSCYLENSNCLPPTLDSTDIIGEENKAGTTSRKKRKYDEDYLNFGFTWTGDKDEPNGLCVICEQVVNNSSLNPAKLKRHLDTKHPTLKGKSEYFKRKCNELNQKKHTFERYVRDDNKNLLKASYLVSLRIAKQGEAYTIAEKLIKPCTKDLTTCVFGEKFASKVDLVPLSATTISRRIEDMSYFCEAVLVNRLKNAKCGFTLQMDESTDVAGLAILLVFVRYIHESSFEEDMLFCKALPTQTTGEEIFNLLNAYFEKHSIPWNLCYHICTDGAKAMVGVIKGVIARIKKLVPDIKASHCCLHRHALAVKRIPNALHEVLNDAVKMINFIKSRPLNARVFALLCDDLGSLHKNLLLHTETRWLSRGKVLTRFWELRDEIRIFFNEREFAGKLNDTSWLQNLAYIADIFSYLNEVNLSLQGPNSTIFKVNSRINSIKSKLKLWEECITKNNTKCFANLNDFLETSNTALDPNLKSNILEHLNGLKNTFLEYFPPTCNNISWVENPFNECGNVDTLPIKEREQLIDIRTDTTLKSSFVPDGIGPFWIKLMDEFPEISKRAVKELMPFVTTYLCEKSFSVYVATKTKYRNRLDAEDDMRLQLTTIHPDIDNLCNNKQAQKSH

[3] = tested on: T2, TcBuster V377T/E469K V377T,E469K (Tribolium castaneum); settings: primary human CD3+ T cells, mean; nearly 2-fold over WT at day 14; unit inferred from figure legend
T2 sequence: T1 sequence with A189D

## mini-circle transposon with TcBuster and Sleeping Beauty IR/DRs, GFP cargo
[1]
  activity: 8.4 % GFP+ cells
[2]
  activity: 24.1 % GFP+ cells
[3]
  activity: 20.2 % GFP+ cells
